In patent US20260103529A1, “Amino Acid Sequences Directed Against the Melanocortin 4 Receptor and Polypeptides Comprising the Same for the Treatment of MC4R-Related Diseases and Disorders” (Confo Therapeutics N.V., priority 2022, published 2026):
Like-named read-outs stand apart in the source and are kept apart here.

Assays:
human wild type MC5R = target: T1, human wild type MC5R (Homo sapiens, UniProt P33032); test: cAMP GloSensor assay, MC5R; assay type: cell-based
T1 construct: expressed in transfected cells; host or cells: HEK293 / HEK 293T, pcDNA3.1(+)

WT human MC4R = target: T2, WT human MC4R (Homo sapiens, UniProt P32245); test: β-arrestin recruitment assay; assay type: cell-based; conditions: for EC50: WT human MC4R-expressing HEK293T cells
T2 construct: Flag (N); expressed in transfected cells; host or cells: HEK293T

[1] = system: melanized reconstituted human epidermis (RHE/MEL/001); test: In vitro pigmentation assay, 3D reconstituted human epidermis, dermoscopy; assay type: cell-based
Method: The study was carried out on melanized human epidermis (RHE/MEL/001; batch CB0521-3) in vitro reconstituted with NHEKs (Normal human epidermal keratinocytes, Lonza 00192906) isolated from foreskin of 3 neonatal Caucasian donors and NHEM-DP (Normal Human Epidermal Melanocytes-Darkly pigmented) isolated form one donor (phototype IV-V). The tissues were cultured at the air-liquid interface in Epilife medium (Fisher Scientific, MEP1500CA) containing specific supplements (with among others Human Keratinocytes Growth Factors, Fisher Scientific S0015 or SO01K) and antibiotics (Gentamycin, Fisher Scientific, 15710049). They were maintained in a humid atmosphere at 37° C. with 5% CO2.
RHE/MEL/001 were reconstituted and cultivated at the air-liquid interface during 14 days in Epilife medium supplemented with specific growth supplements (as described in paragraph 1) in a humid atmosphere at 37° C. with CO2 5%.
IBMX (Sigma; 15879) at 100 µM was used as tanning reference compound to validate the experiment. A DMSO control (corresponding to the solvent used to solubilize IBMX) at 0.02% (corresponding to the final concentration in DMSO found in the culture medium for the condition treated with IBMX) was planned as well. Four replicates were planned per condition (n=4).
At the end of the 10 days treatments (at day 14), macroscopic high-resolution pictures of tissues (n=4) were taken. This was performed using the C-Cube device (Dermoscope type tool; Pixience, France) coupled to C-Cube clinical 3 software, which uses a proprietary method of colour calibration, and provides razor-sharp images of high quality and precision. The following endpoints were calculated, each one taking into account 3 values from the mode “L* a* b*” with L* reflecting the luminance/brightness (value from 0 to 100 with high values for clear skins), a* to gives an idea about the redness of the skin (value from −60 to 60 on the red/green axis) and b* to gives an idea about the yellowness of the skin (value from −60 to 60 on the blue/yellow axis): • ITA (Individual Typology Angle) characterizing the phototype, compared to a standard scale, with ITA>55° for very clear skins and ITA<−30° for black skins. • PI (Pigmentation Index) whose value is directly proportional to the skin pigmentation, with PI from 140 for clear skins to 200 for dark skins. • Colorimetric difference (score or ΔE) allows to quantify colour variation between a test condition and a reference. […]
The two test items, hydro-soluble, were evaluated in parallel of one reference compound known to be a pigmentation inducer, namely IBMX. Their capacity to stimulate the production of melanin was evaluated by visual quantification of melanin on macroscopic high resolution pictures obtained by dermoscopy. […]

human MC1R = target: T3, human MC1R (Homo sapiens, UniProt Q01726); test: Flow cytometry binding to Flag-tagged receptor in HEK293T cells, MC1R; conditions: 1 μM
T3 construct: Flag; expressed in transfected cells; host or cells: HEK293T
Method: (§1) To confirm MC4R activation, dose-dependent nanobody-induced cAMP signaling was assessed (Lance Ultra HTRF). […] Binding of pN162 to the human melanocortin receptor subtypes MC1R, MC2R, MC3R, MC4R or MC5R transiently expressed as Flag-tagged receptors in HEK293T cells was assessed by flow cytometry.

human MC4R = target: T4, human MC4R (Homo sapiens, UniProt P32245); test: Flow cytometry binding to Flag-tagged receptor in HEK293T cells, MC4R; conditions: 1 μM
T4 construct: Flag; expressed in transfected cells; host or cells: HEK293T
Method: as §1

human wild type MC4R = human wild type MC4R (Homo sapiens, UniProt P32245); test: cAMP signaling assay (Lance Ultra HTRF); assay type: cell-based; set-up: double Twin Strep tag; expressed in transfected cells; host or cells: HEK293; conditions: purified nanobodies, human MC4R-overexpressing HEK293 cells, read-out: potencies, MC4R-mediated dose-dependent cAMP accumulation
Method: as §1

[2] = system: highly pigmented normal human epidermal melanocytes (NHEM-HP); test: In vitro pigmentation assay, melanin synthesis, 2D NHEM highly pigmented; assay type: cell-based; conditions: 10 μM, 10 days
Method: Highly and moderately pigmented melanocytes were seeded in 24-well plates and cultured in culture medium for 24 hours. The medium was then replaced by culture medium containing or not (control) the test compounds or the reference compounds (L-tyrosine at 1 mM, IBMX at 100 and 200 μM and NDP-MSH at 10 μM). The cells were then incubated for 10 days with treatment renewal at day 3 and day 7. All experimental conditions were performed in n=3. At the end of the incubation time, the culture supernatants were removed, and melanin was extracted by cell lysis using a 0.5 N NaOH solution. The optical density (OD) of each experimental point was measured at 405 nm and melanin quantity was determined according to melanin standard curve (standard curve ranging from 0.39 to 100 μg/ml). The results were expressed in μg/ml of melanin. […] NHEM-HP response to L-tyrosine and NDP-MSH was stronger than in NHEM-MP while IBMX induced a stronger response in the NHEM-MP.

[3] = 10 μM in culture medium, 10 days, dermoscopy

T2 sequence (P32245 whole entry): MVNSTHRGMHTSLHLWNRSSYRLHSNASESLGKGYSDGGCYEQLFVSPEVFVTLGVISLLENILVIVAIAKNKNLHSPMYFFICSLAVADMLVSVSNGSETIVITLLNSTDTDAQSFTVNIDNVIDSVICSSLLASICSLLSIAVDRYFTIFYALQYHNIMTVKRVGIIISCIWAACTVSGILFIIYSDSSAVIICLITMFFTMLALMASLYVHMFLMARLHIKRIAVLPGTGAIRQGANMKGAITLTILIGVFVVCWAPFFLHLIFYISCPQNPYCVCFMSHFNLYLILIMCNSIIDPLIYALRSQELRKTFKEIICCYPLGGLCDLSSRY
T1 sequence (P33032 whole entry): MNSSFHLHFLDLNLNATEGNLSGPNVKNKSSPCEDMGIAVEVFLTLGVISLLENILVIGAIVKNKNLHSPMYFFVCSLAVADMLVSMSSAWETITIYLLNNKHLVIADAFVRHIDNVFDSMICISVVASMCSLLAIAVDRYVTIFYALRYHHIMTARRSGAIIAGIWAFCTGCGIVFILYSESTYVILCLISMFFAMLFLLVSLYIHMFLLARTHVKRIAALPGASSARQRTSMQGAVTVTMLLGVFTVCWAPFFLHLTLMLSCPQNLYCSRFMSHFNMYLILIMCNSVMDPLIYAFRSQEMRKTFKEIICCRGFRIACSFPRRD
T3 sequence (Q01726 whole entry): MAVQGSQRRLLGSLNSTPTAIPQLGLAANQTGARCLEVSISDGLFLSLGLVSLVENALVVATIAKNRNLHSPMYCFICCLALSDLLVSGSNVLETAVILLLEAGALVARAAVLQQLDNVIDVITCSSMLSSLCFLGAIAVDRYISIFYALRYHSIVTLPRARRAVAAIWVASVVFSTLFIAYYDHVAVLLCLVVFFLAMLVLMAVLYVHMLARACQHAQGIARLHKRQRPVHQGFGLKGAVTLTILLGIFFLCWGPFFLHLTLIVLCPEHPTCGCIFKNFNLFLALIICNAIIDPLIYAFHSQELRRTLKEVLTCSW
T4 sequence (P32245 whole entry): as the sequence (P32245 whole entry) above
Chain of human wild type MC4R (P32245 whole entry): as above

B1: pN162: agonistic anti-MC4R VHH, SEQ ID NO: 184; parental clone for potency maturation (protein)
VHH: QVQLVESGGGLVQPGGSLRLSCAASGSAFSLNVMGWYRQTPGNQRALVAEITKDGSTNYADSAKGRFTISRDNAKNTVHLQMDSLKPEDTAVYYCKARTGRIVRPLDYWGQGTQVTVSS
modifications: pN0162
detectable cAMP signaling, MC5R (human wild type MC5R; GloSensor head-to-head receptor subtype comparison): only induced detectable signaling on MC4R | cAMP potency (EC50) MC5R (human wild type MC5R; GloSensor, average EC50, human MC5R): No effect | β-arrestin2 recruitment (WT human MC4R; Flag-tagged WT human MC4R HEK293T cells): dose-dependently recruits | EC50 (WT human MC4R; No Ca^2+, read-out: β-arrestin No Ca^2+ (EC50)): 16 ± 2.1 nM | dependence of β-arrestin recruitment on Ca2+ ions (WT human MC4R; absence vs presence of 1 mM Ca2+): independent of Ca^2+ ions | EC50 (WT human MC4R; read-out: β-arrestin 1 mM Ca^2+ (EC50), 1 mM Ca^2+): 23 ± 7.1 nM | Individual typology angle (ITA) [1, 3]: No significant effects | pigmentation index (PI) [1, 3]: No significant effects | visual colorimetric difference (score, ΔE) [1, 3]: No significant effects | effect on epidermis pigmentation (conclusion of dermoscopy analysis) ([1]; 10 μM, human epidermis in culture): no effect on epidermis pigmentation | binding to MC1R by flow cytometry (human MC1R): No binding could be detected | binding to MC4R by flow cytometry (human MC4R): only demonstrated for MC4R | EC50 (human wild type MC4R): 0.7 nM | melanin synthesis [2]: 89 % of the control
